From the supplement of paper PMC11316812
± gives the standard deviation of the averaged measurements.

Experiments:
MCF7 = assay: percentage of EdU-negative (G0-arrested) nuclei per well, 72 h; higher = more G0 arrest; settings: reference: sequence is the full UniProt precursor, the tested protein was the secreted form or ectodomain
hTERT-HMEC = assay: as above; settings: reference: sequence is the full UniProt precursor, the tested protein was the secreted form or ectodomain
[1] = protein concentration 0.0225 µM
[2] = protein concentration 0.03092 µM
[3] = protein concentration 0.3092 µM
[4] = protein concentration 0.03125 µM
[5] = protein concentration 0.3125 µM
[6] = protein concentration 0.01125 µM
[7] = protein concentration 0.1125 µM
[8] = protein concentration 0.0214725 µM
[9] = protein concentration 0.214725 µM
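Note: secreted proteins added to cultured cells, EdU pulse at the end, nuclei found by Hoechst imaging, EdU status from nuclear versus surrounding ring intensity ratio, PBS as neutral control.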

| Sequence | percentage of EdU-negative (MCF7; [1]) [%] | percentage of EdU-negative (MCF7; protein concentration 0.225 µM) [%] | percentage of EdU-negative (hTERT-HMEC; [1]) [%] | percentage of EdU-negative (hTERT-HMEC; protein concentration 0.225 µM) [%] | also measured |
| --- | --- | --- | --- | --- | --- |
| MHQMNAKMHFRFVFALLIVSFNHDVLGKNLKYRIYEEQRVGSVIARLSEDVADVLLKLPNPSTVRFRAMQRGNSPLLVVNEDNGEISIGATIDREQLCQKNLNCSIEFDVITLPTEHLQLFHIEVEVLDINDNSPQFSRSLIPIEISESAAVGTRIPLDSAFDPDVGENSLHTYSLSANDFFNIEVRTRTDGAKYAELIVVRELDRELKSSYELQLTASDMGVPQRSGSSILKISISDSNDNSPAFEQQSYIIQLLENSPVGTLLLDLNATDPDEGANGKIVYSFSSHVSPKIMETFKIDSERGHLTLFKQVDYEITKSYEIDVQAQDLGPNSIPAHCKIIIKVVDVNDNKPEININLMSPGKEEISYIFEGDPIDTFVALVRVQDKDSGLNGEIVCKLHGHGHFKLQKTYENNYLILTNATLDREKRSEYSLTVIAEDRGTPSLSTVKHFTVQINDINDNPPHFQRSRYEFVISENNSPGAYITTVTATDPDLGENGQVTYTILESFILGSSITTYVTIDPSNGAIYALRIFDHEEVSQITFVVEARDGGSPKQLVSNTTVVLTIIDENDNVPVVIGPALRNNTAEITIPKGAESGFHVTRIRAIDRDSGVNAELSCAIVAGNEENIFIIDPRSCDIHTNVSMDSVPYTEWELSVIIQDKGNPQLHTKVLLKCMIFEYAESVTSTAMTSVSQASLDVSMIIIISLGAICAVLLVIMVLFATRCNREKKDTRSYNCRVAESTYQHHPKRPSRQIHKGDITLVPTINGTLPIRSHHRSSPSSSPTLERGQMGSRQSHNSHQSLNSLVTISSNHVPENFSLELTHATPAVEQVSQLLSMLHQGQYQPRPSFRGNKYSRSYRYALQDMDKFSLKDSGRGDSEAGDSDYDLGRDSPIDRLLGEGFSDLFLTDGRIPAAMRLCTEECRVLGHSDQCWMPPLPSPSSDYRSNMFIPGEEFPTQPQQQHPHQSLEDDAQPADSGEKKKSFSTFGKDSPNDEDTGDTSTSSLLSEMSSVFQRLLPPSLDTYSECSEVDRSNSLERRKGPLPAKTVGYPQGVAAWAASTHFQNPTTNCGPPLGTHSSVQPSSKWLPAMEEIPENYEEDDFDNVLNHLNDGKHELMDASELVAEINKLLQDVRQS [Q9HCL0] | 28.4 ± 2 | 32.5 ± 0.58 | 3.86 ± 0.13 | 11.6 ± 1.6 |  |
| MHSFPPLLLLLFWGVVSHSFPATLETQEQDVDLVQKYLEKYYNLKNDGRQVEKRRNSGPVVEKLKQMQEFFGLKVTGKPDAETLKVMKQPRCGVPDVAQFVLTEGNPRWEQTHLTYRIENYTPDLPRADVDHAIEKAFQLWSNVTPLTFTKVSEGQADIMISFVRGDHRDNSPFDGPGGNLAHAFQPGPGIGGDAHFDEDERWTNNFREYNLHRVAAHELGHSLGLSHSTDIGALMYPSYTFSGDVQLAQDDIDGIQAIYGRSQNPVQPIGPQTPKACDSKLTFDAITTIRGEVMFFKDRFYMRTNPFYPEVELNFISVFWPQLPNGLEAAYEFADRDEVRFFKGNKYWAVQGQNVLHGYPKDIYSSFGFPRTVKHIDAALSEENTGKTYFFVANKYWRYDEYKRSMDPGYPKMIAHDFPGIGHKVDAVFMKDGFFYFFHGTRQYKFDPKTKRILTLQKANSWFNCRKN |  |  |  |  | percentage of EdU-negative (MCF7; [2]): 24.3 ± 3.2%; percentage of EdU-negative (MCF7; [3]): 26.43 ± 0.08%; percentage of EdU-negative (hTERT-HMEC; [2]): 4.22 ± 0.79%; percentage of EdU-negative (hTERT-HMEC; [3]): 6.403 ± 0.048% |
| MHYCVLSAFLILHLVTVALSLSTCSTLDMDQFMRKRIEAIRGQILSKLKLTSPPEDYPEPEEVPPEVISIYNSTRDLLQEKASRRAAACERERSDEEYYAKEVYKIDMPPFFPSENAIPPTFYRPYFRIVRFDVSAMEKNASNLVKAEFRVFRLQNPKARVPEQRIELYQILKSKDLTSPTQRYIDSKVVKTRAEGEWLSFDVTDAVHEWLHHKDRNLGFKISLHCPCCTFVPSNNYIIPNKSEELEARFAGIDGTSTYTSGDQKTIKSTRKKNSGKTPHLLLMLLPSYRLESQQTNRRKKRALDAAYCFRNVQDNCCLRPLYIDFKRDLGWKWIHEPKGYNANFCAGACPYLWSSDTQHSRVLSLYNTINPEASASPCCVSQDLEPLTILYYIGKTPKIEQLSNMIVKSCKCS |  |  |  |  | percentage of EdU-negative (MCF7; [4]): 30.8 ± 2.4%; percentage of EdU-negative (MCF7; [5]): 40.6 ± 2.4%; percentage of EdU-negative (hTERT-HMEC; [4]): 4.63 ± 1.4%; percentage of EdU-negative (hTERT-HMEC; [5]): 15.8 ± 4.9% |
| MIAFLLTSVLMIPHAGGHPLDTPHLPQELPPGLPNNINITFFSGMFKNVESVAEIFDCLGPHFTWLQAVFTNFPVLIQFVNGMKCVAGLCPRDFEDYGCTCRFEMEGLPVDESDSCCFQHRRCYEEAAEMDCLQDPAKLSTEVNCVSKKIICESKDNCEHLLCTCDKAAIECLARSSLNSSLNLLDTSFCLAQTPETTIKEDLTTLLPRVVPVEPTDTSLTALSGEEAGHDQEGVGAARATSPPGSAEIVATRVTAKIVTLVPAGIKSLGLAVSSVENDPEETTEKACDRFTFLHLGSGDNMQVMPQLGEMLFCLTSRCPEEFESYGCYCGQEGRGEPRDDLDRCCLSHHCCLEQVRRLGCLLERLPWSPVVCVDHTPKCGGQSLCEKLLCACDQTAAECMTSASFNQSLKSPSRLGCPGQPAACEDSLHPVPAAPTLGSSSEEDSEEDPPQEDLGRAKRFLRKSLGPLGIGPLHGR | 26.2 ± 2.5 | 25.7 ± 0.78 | 5.21 ± 0.36 | 5.66 ± 0.11 |  |
| MICLVLTIFANLFPAACTGAHERTFLAVKPDGVQRRLVGEIVRRFERKGFKLVALKLVQASEELLREHYAELRERPFYGRLVKYMASGPVVAMVWQGLDVVRTSRALIGATNPADAPPGTIRGDFCIEVGKNLIHGSDSVESARREIALWFRADELLCWEDSAGHWLYE | 25.5 ± 3.9 | 22.9 ± 1.8 | 4.25 ± 0.15 | 5.77 ± 0.68 |  |
| MICQKFCVVLLHWEFIYVITAFNLSYPITPWRFKLSCMPPNSTYDYFLLPAGLSKNTSNSNGHYETAVEPKFNSSGTHFSNLSKTTFHCCFRSEQDRNCSLCADNIEGKTFVSTVNSLVFQQIDANWNIQCWLKGDLKLFICYVESLFKNLFRNYNYKVHLLYVLPEVLEDSPLVPQKGSFQMVHCNCSVHECCECLVPVPTAKLNDTLLMCLKITSGGVIFQSPLMSVQPINMVKPDPPLGLHMEITDDGNLKISWSSPPLVPFPLQYQVKYSENSTTVIREADKIVSATSLLVDSILPGSSYEVQVRGKRLDGPGIWSDWSTPRVFTTQDVIYFPPKILTSVGSNVSFHCIYKKENKIVPSKEIVWWMNLAEKIPQSQYDVVSDHVSKVTFFNLNETKPRGKFTYDAVYCCNEHECHHRYAELYVIDVNINISCETDGYLTKMTCRWSTSTIQSLAESTLQLRYHRSSLYCSDIPSIHPISEPKDCYLQSDGFYECIFQPIFLLSGYTMWIRINHSLGSLDSPPTCVLPDSVVKPLPPSSVKAEITINIGLLKISWEKPVFPENNLQFQIRYGLSGKEVQWKMYEVYDAKSKSVSLPVPDLCAVYAVQVRCKRLDGLGYWSNWSNPAYTVVMDIKVPMRGPEFWRIINGDTMKKEKNVTLLWKPLMKNDSLCSVQRYVINHHTSCNGTWSEDVGNHTKFTFLWTEQAHTVTVLAINSIGASVANFNLTFSWPMSKVNIVQSLSAYPLNSSCVIVSWILSPSDYKLMYFIIEWKNLNEDGEIKWLRISSSVKKYYIHDHFIPIEKYQFSLYPIFMEGVGKPKIINSFTQDDIEKHQSDAGLYVIVPVIISSSILLLGTLLISHQRMKKLFWEDVPNPKNCSWAQGLNFQKPETFEHLFIKHTASVTCGPLLLEPETISEDISVDTSWKNKDEMMPTTVVSLLSTTDLEKGSVCISDQFNSVNFSEAEGTEVTYEDESQRQPFVKYATLISNSKPSETGEEQGLINSSVTKCFSSKNSPLKDSFSNSSWEIEAQAFFILSDQHPNIISPHLTFSEGLDELLKLEGNFPEENNDKKSIYYLGVTSIKKRESGVLLTDKSRVSCPFPAPCLFTDIRVLQDSCSHFVENNINLGTSSKKTFASYMPQFQTCSTQTHKIMENKMCDLTV |  |  |  |  | percentage of EdU-negative (MCF7; protein concentration 0.012 µM): 23.4 ± 3.1%; percentage of EdU-negative (MCF7; protein concentration 0.12 µM): 21.2 ± 0.96%; percentage of EdU-negative (hTERT-HMEC; protein concentration 0.012 µM): 5.06 ± 0.43%; percentage of EdU-negative (hTERT-HMEC; protein concentration 0.12 µM): 5.17 ± 0.64% |
| MIFLLLMLSLELQLHQIAALFTVTVPKELYIIEHGSNVTLECNFDTGSHVNLGAITASLQKVENDTSPHRERATLLEEQLPLGKASFHIPQVQVRDEGQYQCIIIYGVAWDYKYLTLKVKASYRKINTHILKVPETDEVELTCQATGYPLAEVSWPNVSVPANTSHSRTPEGLYQVTSVLRLKPPPGRNFSCVFWNTHVRELTLASIDLQSQMEPRTHPTWLLHIFIPFCIIAFIFIATVIALRKQLCQKLYSSKDTTKRPVTTTKREVNSAI [Q9BQ51] | 23.9 ± 0.28 | 24.6 ± 0.78 | 4.79 ± 0.078 | 7.37 ± 0.34 |  |
| MIFLTALPLFWIMISASRGGHWGAWMPSSISAFEGTCVSIPCRFDFPDELRPAVVHGVWYFNSPYPKNYPPVVFKSRTQVVHESFQGRSRLLGDLGLRNCTLLLSNVSPELGGKYYFRGDLGGYNQYTFSEHSVLDIVNTPNIVVPPEVVAGTEVEVSCMVPDNCPELRPELSWLGHEGLGEPAVLGRLREDEGTWVQVSLLHFVPTREANGHRLGCQASFPNTTLQFEGYASMDVKYPPVIVEMNSSVEAIEGSHVSLLCGADSNPPPLLTWMRDGTVLREAVAESLLLELEEVTPAEDGVYACLAENAYGQDNRTVGLSVMYAPWKPTVNGTMVAVEGETVSILCSTQSNPDPILTIFKEKQILSTVIYESELQLELPAVSPEDDGEYWCVAENQYGQRATAFNLSVEFAPVLLLESHCAAARDTVQCLCVVKSNPEPSVAFELPSRNVTVNESEREFVYSERSGLVLTSILTLRGQAQAPPRVICTARNLYGAKSLELPFQGAHRLMWAKIGPVGAVVAFAILIAIVCYITQTRRKKNVTESPSFSAGDNPPVLFSSDFRISGAPEKYESERRLGSERRLLGLRGEPPELDLSYSHSDLGKRPTKDSYTLTEELAEYAEIRVK |  |  |  |  | percentage of EdU-negative (MCF7; [6]): 28.5 ± 0.33%; percentage of EdU-negative (MCF7; [7]): 28.73 ± 0.11%; percentage of EdU-negative (hTERT-HMEC; [6]): 5.66 ± 0.36%; percentage of EdU-negative (hTERT-HMEC; [7]): 6.55 ± 0.84% |
| MIFPWKCQSTQRDLWNIFKLWGWTMLCCDFLAHHGTDCWTYHYSEKPMNWQRARRFCRDNYTDLVAIQNKAEIEYLEKTLPFSRSYYWIGIRKIGGIWTWVGTNKSLTEEAENWGDGEPNNKKNKEDCVEIYIKRNKDAGKWNDDACHKLKAALCYTASCQPWSCSGHGECVEIINNYTCNCDVGYYGPQCQFVIQCEPLEAPELGTMDCTHPLGNFSFSSQCAFSCSEGTNLTGIEETTCGPFGNWSSPEPTCQVIQCEPLSAPDLGIMNCSHPLASFSFTSACTFICSEGTELIGKKKTICESSGIWSNPSPICQKLDKSFSMIKEGDYNPLFIPVAVMVTAFSGLAFIIWLARRLKKGKKSKRSMNDPY | 24.2 ± 0.78 | 32.8 ± 4 | 4.92 ± 0.1 | 11.1 ± 1.2 |  |
| MIHGRSVLHIVASLIILHLSGATKKGTEKQTTSETQKSVQCGTWTKHAEGGIFTSPNYPSKYPPDRECIYIIEAAPRQCIELYFDEKYSIEPSWECKFDHIEVRDGPFGFSPIIGRFCGQQNPPVIKSSGRFLWIKFFADGELESMGFSARYNFTPDPDFKDLGALKPLPACEFEMGGSEGIVESIQIMKEGKATASEAVDCKWYIRAPPRSKIYLRFLDYEMQNSNECKRNFVAVYDGSSSVEDLKAKFCSTVANDVMLRTGLGVIRMWADEGSRNSRFQMLFTSFQEPPCEGNTFFCHSNMCINNTLVCNGLQNCVYPWDENHCKEKRKTSLLDQLTNTSGTVIGVTSCIVIILIIISVIVQIKQPRKKYVQRKSDFDQTVFQEVFEPPHYELCTLRGTGATADFADVADDFENYHKLRRSSSKCIHDHHCGSQLSSTKGSRSNLSTRDASILTEMPTQPGKPLIPPMNRRNILVMKHSYSQDAADACDIDEIEEVPTTSHRLSRHDKAVQRFCLIGSLSKHESEYNTTRV [Q8TDF5] |  |  |  |  | percentage of EdU-negative (MCF7; [8]): 23.53 ± 0.037%; percentage of EdU-negative (MCF7; [9]): 26.76 ± 0.058%; percentage of EdU-negative (hTERT-HMEC; [8]): 4.64 ± 0.48%; percentage of EdU-negative (hTERT-HMEC; [9]): 7.76 ± 0.38% |
